Experimental data taken from publication PMC11195947.

Test system: His6-CusR (Pseudomonas paraeruginosa IHMA87)
Experiment: EMSA
Details: apparent equilibrium constant (Keq); unphosphorylated CusR; 20 mM HEPES pH 7.9, 80 mM KCl, 20 mM MgCl2, 0.8 mM EDTA, 7.5% glycerol, 0.1 mM DTT, 25 C; 0.5 nM probe; native 5% TBE gel at 4 C

Question: For “PcusR probe (pcoA2-cusR intergenic 60-mer)”, which Kd is on record?
Answer: 25 nM
